According to article PMC5714288:

Molecular target: pyruvate kinase isoform M2 (PKM2) (human (endogenous in U1 and U937)) (UniProt P14618)
Test: native gel or EMSA

Sequence of pyruvate kinase isoform M2 (PKM2), P14618 1-531 (natural protein; other documents disagree on this pair) (P14618 whole entry, canonical isoform): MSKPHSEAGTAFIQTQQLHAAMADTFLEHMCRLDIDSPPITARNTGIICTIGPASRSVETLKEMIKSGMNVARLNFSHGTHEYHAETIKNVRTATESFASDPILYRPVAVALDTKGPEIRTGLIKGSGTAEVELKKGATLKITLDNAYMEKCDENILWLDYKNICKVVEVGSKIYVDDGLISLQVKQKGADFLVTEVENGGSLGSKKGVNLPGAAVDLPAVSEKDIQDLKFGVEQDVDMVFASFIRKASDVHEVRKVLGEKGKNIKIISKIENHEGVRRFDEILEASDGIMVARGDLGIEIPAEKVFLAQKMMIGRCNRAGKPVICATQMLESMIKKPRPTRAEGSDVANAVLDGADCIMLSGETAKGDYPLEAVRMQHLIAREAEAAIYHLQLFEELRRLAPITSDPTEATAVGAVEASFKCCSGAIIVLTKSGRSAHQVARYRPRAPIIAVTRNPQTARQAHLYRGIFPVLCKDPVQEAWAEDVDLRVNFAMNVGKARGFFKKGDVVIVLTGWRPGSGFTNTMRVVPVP

For “pyruvate kinase isoform M2 (PKM2), P14618 1-531 (natural protein; other documents disagree on this pair)”, the stoichiometry N was 2.
